Assay results from IntAct's records for PubMed 18626018.

B1: CREB-regulated transcription coactivator 2 (Mus musculus), Q3U182 (parent)
chain: MATSGANGPGSATASASNPRKFSEKIALQKQRQAEETAAFEEVMMDIGSTRLQAQKLRLAYTRSSHYGGSLPNVNQIGCGLAEFQSPLHSPLDSSRSTRHHGLVERVQRDARRMVSPLRRYPRHIDSSPYSPAYLSPPPESGWRRMMPWGNLPAEKGQLFRLPSALNRTSSDSALHTSVMNPNPQDTYPGPTPPSVLPSRRGGGFLDGEMDAKVPAIEENVVDDKHLLKPWDAKKLSSSSSRPRSCEVPGINIFPSPDQPANVPVLPPAMNTGGSLPDLTNLHFPPPLPTPLDPEETVYPSLSGGNSTTNLTHTMTHLGISGGLGLGPSYDVPGLHSPLSHPSLQSSLSNPNLQASLSSPQPQLQGSHSHPSLPASSLAHHALPTTSLGHPSLSAPALSSSSSSSSTSSPVLSAPPYPASTPGASPRHRRVPLSPLSLPAGPADARRSQQQLPKQFSPTMSPTLSSITQGVPLDTSKLPTDQRLPPYPYSPPSLVIPTHPPTPKSLQQLPSQACLVQPSGGQPPGRQPHYGALYPPGSSGHGQQPYHRPINDFSLGNLEQFNMESPSTSLVLDPPAFSEGPGFLGSEGSMSGPQDPHVLNHQNLTHCSRHGSGPNIILTGDSSPGFSKEIAAALAGVPGFEVSASGLELGLGLEDELRMEPLGLEGLTMLSDPCALLPDPAVEDSFRSDRLQ

What was measured:
[1] = variants of: B1; settings: with mark2_human MARK2, Q7KZI7
Sequence of mark2_human MARK2, Q7KZI7 (Q7KZI7 whole entry): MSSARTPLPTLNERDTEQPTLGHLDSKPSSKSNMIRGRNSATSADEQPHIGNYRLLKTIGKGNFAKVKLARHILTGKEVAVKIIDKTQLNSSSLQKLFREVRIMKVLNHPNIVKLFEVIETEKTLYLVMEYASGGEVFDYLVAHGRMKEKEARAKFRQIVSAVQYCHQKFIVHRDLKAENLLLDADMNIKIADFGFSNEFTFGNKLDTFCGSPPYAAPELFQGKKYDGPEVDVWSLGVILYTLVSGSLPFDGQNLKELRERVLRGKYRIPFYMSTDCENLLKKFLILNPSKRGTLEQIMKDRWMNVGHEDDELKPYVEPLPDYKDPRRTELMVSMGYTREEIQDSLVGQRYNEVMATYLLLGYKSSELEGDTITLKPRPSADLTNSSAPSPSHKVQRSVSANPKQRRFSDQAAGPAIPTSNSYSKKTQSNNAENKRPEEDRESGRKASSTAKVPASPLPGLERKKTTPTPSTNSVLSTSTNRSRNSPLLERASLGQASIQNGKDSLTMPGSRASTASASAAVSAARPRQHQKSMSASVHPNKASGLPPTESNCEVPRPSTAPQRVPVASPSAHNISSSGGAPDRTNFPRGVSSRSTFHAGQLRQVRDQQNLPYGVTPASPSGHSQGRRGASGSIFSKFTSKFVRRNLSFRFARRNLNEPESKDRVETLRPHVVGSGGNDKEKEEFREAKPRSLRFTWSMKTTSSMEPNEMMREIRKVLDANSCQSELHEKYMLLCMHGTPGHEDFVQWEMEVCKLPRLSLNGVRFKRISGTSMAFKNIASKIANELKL

[2] = variants of: B1; settings: with aapk1_human PRKAA1, Q13131
Sequence of aapk1_human PRKAA1, Q13131 (Q13131 whole entry, looked up): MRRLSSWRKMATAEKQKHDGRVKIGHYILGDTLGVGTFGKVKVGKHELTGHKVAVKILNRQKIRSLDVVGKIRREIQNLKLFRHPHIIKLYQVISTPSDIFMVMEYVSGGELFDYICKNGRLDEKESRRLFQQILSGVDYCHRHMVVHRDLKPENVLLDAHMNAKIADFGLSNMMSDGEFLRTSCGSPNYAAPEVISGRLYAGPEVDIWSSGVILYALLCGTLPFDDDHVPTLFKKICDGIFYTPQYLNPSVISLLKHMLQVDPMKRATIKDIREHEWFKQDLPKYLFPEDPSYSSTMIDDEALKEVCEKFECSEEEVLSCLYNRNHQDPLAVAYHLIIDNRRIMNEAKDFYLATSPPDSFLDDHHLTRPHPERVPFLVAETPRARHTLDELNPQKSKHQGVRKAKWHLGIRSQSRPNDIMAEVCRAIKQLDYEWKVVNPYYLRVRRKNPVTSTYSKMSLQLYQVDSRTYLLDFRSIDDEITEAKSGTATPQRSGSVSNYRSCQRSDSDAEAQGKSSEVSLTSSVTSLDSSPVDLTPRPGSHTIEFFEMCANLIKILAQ

[3] = variants of: B1; settings: with mark3_human MARK3, P27448
Sequence of mark3_human MARK3, P27448 (P27448 whole entry, looked up): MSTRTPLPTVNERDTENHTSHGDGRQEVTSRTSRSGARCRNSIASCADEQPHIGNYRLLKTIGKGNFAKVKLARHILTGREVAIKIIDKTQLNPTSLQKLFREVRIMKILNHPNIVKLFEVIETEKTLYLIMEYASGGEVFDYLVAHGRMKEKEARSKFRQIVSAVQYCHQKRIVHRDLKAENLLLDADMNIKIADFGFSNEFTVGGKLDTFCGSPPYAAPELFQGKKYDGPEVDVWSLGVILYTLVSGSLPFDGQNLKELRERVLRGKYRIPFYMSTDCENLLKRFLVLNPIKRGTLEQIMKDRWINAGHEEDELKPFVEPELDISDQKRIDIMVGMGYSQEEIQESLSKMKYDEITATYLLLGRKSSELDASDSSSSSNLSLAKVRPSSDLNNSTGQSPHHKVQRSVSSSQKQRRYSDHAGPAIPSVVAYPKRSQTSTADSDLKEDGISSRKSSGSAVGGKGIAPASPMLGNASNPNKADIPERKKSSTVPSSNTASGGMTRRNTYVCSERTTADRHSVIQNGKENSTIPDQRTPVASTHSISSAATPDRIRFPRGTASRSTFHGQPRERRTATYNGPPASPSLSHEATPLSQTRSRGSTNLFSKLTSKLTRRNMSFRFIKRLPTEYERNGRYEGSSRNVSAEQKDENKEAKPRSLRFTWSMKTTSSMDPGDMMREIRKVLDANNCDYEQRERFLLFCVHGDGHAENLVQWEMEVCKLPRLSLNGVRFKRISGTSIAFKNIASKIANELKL

[4] = variants of: B1; settings: with 1433b_human YWHAB

effect of a mutation on the interaction [1] | effect of a mutation on the interaction [2] | effect of a mutation on the interaction [3] | effect of a mutation on the interaction [4] | Variant
disrupting interaction | disrupting interaction | disrupting interaction |  | S275A
disrupting interaction | disrupting interaction | disrupting interaction | disrupting interaction | S171A
 |  |  | disrupting interaction | S171A;S275A
